Laboratory results taken from paper PMC7794784, “A Very Bright Far-Red Bioluminescence Emitting Combination Based on Engineered Railroad Worm Luciferase and 6′-Amino-Analogs for Bioimaging Purposes” (International Journal of Molecular Sciences, 2020).
Positions count from the first letter of the chain named. In names and notes the source's numbering stands.

B1: PxRE luciferase (P. hirtus red-emitting luciferase, RE WT) (Phrixothrix hirtus) (protein)
chain: MEEENIVNGDRPRDLVFPGTAGLQLYQSLYKYSYITDGIIDAHTNEVISYAQIFETSCRLAVSLEKYGLDHNNVVAICSENNIHFFGPLIAALYQGIPMATSNDMYTEREMIGHLNISKPCLMFCSKKSLPFILKVQKHLDFLKKVIVIDSMYDINGVECVFSFVSRYTDHAFDPVKFNPKEFDPLERTALIMTSSGTTGLPKGVVISHRSITIRFVHSSDPIYGTRIAPDTSILAIAPFHHAFGLFTALAYFPVGLKIVMVKKFEGEFFLKTIQNYKIASIVVPPPIMVYLAKSPLVDEYNLSSLTEIACGGSPLGRDIADKVAKRLKVHGILQGYGLTETCSALILSPNDRELKKGAIGTPMPYVQVKVIDINTGKALGPREKGEICFKSQMLMKGYHNNPQATRDALDKDGWLHTGDLGYYDEDRFIYVVDRLKELIKYKGYQVAPAELENLLLQHPNISDAGVIGIPDEFAGQLPSACVVLEPGKTMTEKEVQDYIAELVTTTKHLRGGVVFIDSIPKGPTGKLMRNELRAIFAREQAKSKL
B2: PxRE luciferase (P. hirtus red-emitting luciferase, RE WT) (Phrixothrix hirtus; R215K) (protein)
chain: B1 chain with R215K

Assays:
purified protein = substrate: Nc1ncnc2c1ncn2[C@@H]1O[C@H](COP(=O)(O)OP(=O)(O)OP(=O)(O)O)[C@@H](O)[C@H]1O; assay: purified protein; settings: co-substrate D-luciferin, 4 mM MgSO4, 0.10 M Tris-HCl pH 8.0, 22 °C
[1] = substrate: O=C(O)[C@H]1CSC(c2nc3ccc(N4CCCC4)cc3s2)=N1; assay: bioluminescence peak intensity (I0), Lineweaver-Burk; format: biochemical, Phrixothrix hirtus; settings: 2 mM ATP, 4 mM MgSO4, 0.10 M Tris-HCl pH 8.0, 22 °C, kcat in relative luminometer counts
Description: (§1) bioluminescence peak intensity (I0), Lineweaver-Burk on PxRE luciferase (P. hirtus red-emitting luciferase, RE WT)

[2] = substrate: O=C(O)[C@H]1CSC(c2nc3ccc(O)cc3s2)=N1; assay: as above; format: biochemical, Phrixothrix hirtus; settings: 2 mM ATP, 4 mM MgSO4, 0.10 M Tris-HCl pH 8.0, 22 °C, kcat in relative luminometer counts
Description: as §1

Row | Protein | Km (purified protein) [µM] | Km [1] [µM] | Km [2] [µM]
1 | B1 | 230 | 0.5 | 7
2 | B2 | 50 | 1.0 | 40
